# Results: patent US7127357 (SALK INSTITUTE FOR BIOLOGICAL STUDIES, dated 2006)
# Non-standard residues stand in square brackets, D forms with d. No end group written: not given here. pT = C[C@@H](OP(=O)(O)O)[C@H](N)C(=O)O; pS = N[C@@H](COP(=O)(O)O)C(=O)O
# B1: PPGpSPP (Myt1-S416), rhodamine-labeled (peptide)
# peptide: PPG[pS]PP
# modifications: also: tetramethylrhodamine label on an amine
# notes: Six-residue peptide derived from human Myt1
# B2: VPRpTPV (Cdc25c-T48), rhodamine-labeled (peptide)
# peptide: VPR[pT]PV
# modifications: also: tetramethylrhodamine label on an amine
# notes: Six-residue peptide derived from human Cdc25c
# B3: PPApTPP (Myt1-T412), rhodamine-labeled (peptide)
# peptide: PPA[pT]PP
# modifications: also: tetramethylrhodamine label on an amine
# notes: as for B1
# B4: STSpTPR (Myt1-T455), rhodamine-labeled (peptide)
# peptide: STS[pT]PR
# modifications: also: tetramethylrhodamine label on an amine
# notes: as for B1
# Target: T1, isolated PPIase domain of human Pin1 (human, UniProt Q13526 50-163)
# T1 construct: range 50-163; also called Pin1 PPIase domain
# T1 sequence (Q13526 50-163 limits assumed): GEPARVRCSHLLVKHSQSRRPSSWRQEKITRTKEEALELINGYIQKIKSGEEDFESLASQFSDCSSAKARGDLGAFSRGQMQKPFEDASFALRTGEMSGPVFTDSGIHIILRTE
# Experiment: fluorescence anisotropy, rhodamine-labeled peptide
row,Binder,binding result
1,B1,no binding
2,B2,no binding
3,B3,no binding
4,B4,no binding
